Laboratory results from article PMC12583610, “Allosteric control of the bacterial ClpC/ClpP protease and its hijacking by antibacterial peptides” (The EMBO Journal, 2025).

Experiments:
Mtb ClpC1 = Mtb ClpC1 (Mycobacterium tuberculosis, UniProt P9WPC9)
[1] = target: Staphylococcus aureus ClpC wild-type (Staphylococcus aureus) (UniProt Q2G0P5); experiment: mass photometry
[2] = target: Staphylococcus aureus ClpC wild-type (Staphylococcus aureus) (UniProt Q2G0P5); experiment: cross-linking
[3] = target: Staphylococcus aureus ClpC-F436A (Staphylococcus aureus) (UniProt Q2G0P5); experiment: cross-linking
[4] = target: Staphylococcus aureus ClpC-F436A (Staphylococcus aureus) (UniProt Q2G0P5); experiment: dynamic light scattering
[5] = target: T1, Staphylococcus aureus ClpP (Staphylococcus aureus), Q2G036; experiment: negative stain EM; details: remark: other sources report otherwise
T1 chain: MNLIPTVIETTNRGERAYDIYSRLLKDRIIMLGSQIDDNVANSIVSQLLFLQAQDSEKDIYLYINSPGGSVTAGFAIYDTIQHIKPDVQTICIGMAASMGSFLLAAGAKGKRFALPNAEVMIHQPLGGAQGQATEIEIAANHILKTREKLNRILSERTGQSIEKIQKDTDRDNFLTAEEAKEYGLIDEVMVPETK

Molecule: Nc1ncnc2c1ncn2[C@@H]1O[C@H](COP(=O)(O)OP(=O)(O)OP(=O)(O)O)[C@@H](O)[C@H]1O [ATP]
- coupled PK/LDH NADH ATPase assay (Mtb ClpC1): ATPase activities of Mtb ClpC1-WT and indicated mutants were determined

Molecule: Staphylococcus aureus ClpC wild-type (from UniProt Q2G0P5) (natural protein)
- stoichiometry N [1]: 2
- stoichiometry N [2]: 6

Molecule: Staphylococcus aureus ClpC-F436A (from UniProt Q2G0P5) (natural protein)
- stoichiometry N [3]: 6
- stoichiometry N [4]: 6

B1: Staphylococcus aureus ClpP, Q2G036 1-195 (enzyme)
chain: T1 chain
- stoichiometry N [5]: 14
